Tests used:
soluble CD16A (sCD16A) = target: T1, soluble CD16A (sCD16A) (human, UniProt P08637 17-208, biotin or HRP conjugate where used as the ELISA probe); test: SPR (BIAcore), receptor immobilised, diabody 6.25-200 nM as analyte, bivalent analyte fit
T1 construct: extracellular domain; Printed only as soluble CD16A; also called hCD16A; hCD16
Procedure: Diabodies were injected at concentrations of 6.25-200 nM over receptor surfaces at a flow rate of […] for 180 sec.
(§1) sCD16A, sCD32B or sCD32A (negative control) were immobilized on one of the four flow cells (flow cell 2) of a sensor chip surface through amine coupling chemistry (by modification of carboxymethyl groups with mixture of NHS/EDC) such that about 1000 response units (RU) of either receptor was immobilized on the surface. Following this, the unreacted active esters were “capped off” with an injection of 1M Et-NH2.

sCD32B-Ig = target: T2, sCD32B-Ig (UniProt P31994 43-217); test: sandwich ELISA: sCD32B-Ig coated, diabody, sCD16A-Biotin probe, streptavidin-HRP
T2 construct: extracellular domain; not shown: Ig part of sCD32B-Ig; not described
T2 sequence (looked up): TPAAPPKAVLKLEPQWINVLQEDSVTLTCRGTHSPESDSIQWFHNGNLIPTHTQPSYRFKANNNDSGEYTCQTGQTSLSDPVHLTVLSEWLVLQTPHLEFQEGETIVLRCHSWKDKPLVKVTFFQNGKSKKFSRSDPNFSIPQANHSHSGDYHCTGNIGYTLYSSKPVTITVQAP
Procedure: The plate was then incubated at room temperature for 1 hour.

sCD32A = target: T3, sCD32A (UniProt P12318 34-217, limits assumed); test: SPR (BIAcore), receptor immobilised
T3 construct: extracellular domain; Negative control surface in SPR; also called control receptor
T3 sequence (looked up): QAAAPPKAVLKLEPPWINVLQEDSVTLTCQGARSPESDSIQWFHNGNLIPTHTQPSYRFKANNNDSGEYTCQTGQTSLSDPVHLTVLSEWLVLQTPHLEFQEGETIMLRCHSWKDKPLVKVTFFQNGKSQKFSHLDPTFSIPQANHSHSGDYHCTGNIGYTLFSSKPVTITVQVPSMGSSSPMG
Procedure: (§2) (A) Binding to sCD16; (B) Binding to sCD32B and (C) Binding to sCD32A. Diabodies were injected at a concentration of 100 NM, and scFv at a concentration of 200 nM, over receptor surfaces at a flow rate of […] for 60 sec.
as §1

soluble CD32B (sCD32B) = target: T4, soluble CD32B (sCD32B) (human, UniProt P31994 43-217, biotin where used as the ELISA probe); test: SPR (BIAcore), receptor immobilised
T4 construct: extracellular domain; also called soluble CD32B ectodomain; sCD32B-biotin
T4 sequence (looked up): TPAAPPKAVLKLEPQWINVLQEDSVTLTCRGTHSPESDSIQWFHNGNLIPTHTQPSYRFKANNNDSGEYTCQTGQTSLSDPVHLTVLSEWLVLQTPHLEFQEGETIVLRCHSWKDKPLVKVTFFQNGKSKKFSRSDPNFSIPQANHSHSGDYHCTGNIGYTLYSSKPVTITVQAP
Procedure: as §2, §1

T1 sequence (P08637 17-208): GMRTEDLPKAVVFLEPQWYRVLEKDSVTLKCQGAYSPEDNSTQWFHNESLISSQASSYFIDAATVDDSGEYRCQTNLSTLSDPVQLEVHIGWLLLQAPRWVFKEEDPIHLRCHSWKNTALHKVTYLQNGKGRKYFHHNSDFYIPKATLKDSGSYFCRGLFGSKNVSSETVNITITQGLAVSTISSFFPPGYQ

B1: h3G8 covalent monospecific diabody (CMD) (other)
chain: DIVMTQSPDSLAVSLGERATINCKASQSVDFDGDSFMNWYQQKPGQPPKLLIYTTSNLESGVPDRFSGSGSGTDFTLTISSLQAEDVAVYYCQQSNEDPYTFGQGTKLEIKGGGSGGGGQVTLRESGPALVKPTQTLTLTCTFSGFSLSTSGMGVGWIRQPPGKALEWLAHIWWDDDKRYNPALKSRLTISKDTSKNQVVLTMTNMDPVDTATYYCAQINPAWFAYWGQGTLVTVSSLGGC
notes: Covalent homodimer of construct 3; also called h3G8 CMD; h3G8 diabody
Q: Which results are given for B1?
A: Kd (soluble CD16A (sCD16A)): 18 nM; binding result (sCD32B-Ig): no binding (tested: 0.5 µg/ml to 0.001 µg/ml); binding result (sCD32A): no binding (tested: 100 nM); binding result (soluble CD32B (sCD32B)): no binding (tested: 100 nM)
